Experimental data from patent US20230250154A1 (CYTONICS, published 2023).

Columns and labels:
Assay in all cases: cell-based or functional assay
MMP2 = biological target: T1, MMP2 (human, UniProt P08253 110-660, limits assumed)
T1 sequence (looked up): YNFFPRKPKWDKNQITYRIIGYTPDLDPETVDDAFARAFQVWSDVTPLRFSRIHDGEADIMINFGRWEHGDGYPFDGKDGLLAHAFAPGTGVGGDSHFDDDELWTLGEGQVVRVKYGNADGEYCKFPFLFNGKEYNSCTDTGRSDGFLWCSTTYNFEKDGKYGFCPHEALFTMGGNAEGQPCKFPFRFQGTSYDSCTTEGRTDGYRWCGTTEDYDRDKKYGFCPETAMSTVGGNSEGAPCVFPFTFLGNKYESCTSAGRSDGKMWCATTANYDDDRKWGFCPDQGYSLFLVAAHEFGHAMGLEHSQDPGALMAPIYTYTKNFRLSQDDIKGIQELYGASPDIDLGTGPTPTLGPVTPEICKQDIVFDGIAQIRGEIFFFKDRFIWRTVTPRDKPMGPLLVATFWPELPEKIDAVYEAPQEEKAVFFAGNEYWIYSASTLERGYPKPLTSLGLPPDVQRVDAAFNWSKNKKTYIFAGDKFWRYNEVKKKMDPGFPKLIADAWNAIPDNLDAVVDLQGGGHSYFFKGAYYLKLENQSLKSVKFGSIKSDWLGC

ADAMTS5 = biological target: T2, ADAMTS5 (human, UniProt Q9UNA0 262-622, limits assumed)
T2 sequence (looked up): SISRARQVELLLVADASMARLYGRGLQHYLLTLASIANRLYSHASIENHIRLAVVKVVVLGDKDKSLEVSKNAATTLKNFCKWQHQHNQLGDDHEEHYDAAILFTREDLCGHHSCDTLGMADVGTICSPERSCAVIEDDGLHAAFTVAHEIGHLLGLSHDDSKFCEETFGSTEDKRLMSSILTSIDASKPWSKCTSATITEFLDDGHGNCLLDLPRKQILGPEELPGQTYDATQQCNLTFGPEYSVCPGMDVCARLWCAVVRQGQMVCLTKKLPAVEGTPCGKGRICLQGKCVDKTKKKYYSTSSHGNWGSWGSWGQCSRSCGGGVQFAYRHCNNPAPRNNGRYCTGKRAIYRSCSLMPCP

MMP3 = MMP3 (human, UniProt P08254 100-477, limits assumed)
MMP3, sequence (P08254 100-477 limits assumed): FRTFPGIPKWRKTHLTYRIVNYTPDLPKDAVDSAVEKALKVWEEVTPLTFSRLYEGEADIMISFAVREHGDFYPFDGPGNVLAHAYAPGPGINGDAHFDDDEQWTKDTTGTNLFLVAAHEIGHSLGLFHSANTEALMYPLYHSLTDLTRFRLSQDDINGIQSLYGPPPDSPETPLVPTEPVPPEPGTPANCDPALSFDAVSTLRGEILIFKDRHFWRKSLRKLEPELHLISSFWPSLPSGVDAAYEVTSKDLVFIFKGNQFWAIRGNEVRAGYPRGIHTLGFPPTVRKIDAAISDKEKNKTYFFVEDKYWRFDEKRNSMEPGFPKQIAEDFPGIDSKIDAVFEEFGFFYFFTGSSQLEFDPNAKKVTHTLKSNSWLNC

MMP8 = MMP8 (human, UniProt P22894 101-467, limits assumed)
MMP8, sequence (P22894 101-467 limits assumed): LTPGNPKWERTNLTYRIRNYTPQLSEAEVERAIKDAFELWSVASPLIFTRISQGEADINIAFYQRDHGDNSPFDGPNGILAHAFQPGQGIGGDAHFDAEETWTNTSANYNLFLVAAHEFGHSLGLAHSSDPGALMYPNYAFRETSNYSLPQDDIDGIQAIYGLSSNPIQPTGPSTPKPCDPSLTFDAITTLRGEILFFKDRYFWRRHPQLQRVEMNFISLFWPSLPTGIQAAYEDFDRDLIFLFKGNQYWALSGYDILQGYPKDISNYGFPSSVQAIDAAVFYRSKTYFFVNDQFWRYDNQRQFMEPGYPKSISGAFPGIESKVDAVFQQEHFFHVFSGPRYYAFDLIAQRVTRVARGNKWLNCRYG

MMP9 = MMP9 (human, UniProt P14780 107-707, limits assumed)
MMP9, sequence (P14780 107-707 limits assumed): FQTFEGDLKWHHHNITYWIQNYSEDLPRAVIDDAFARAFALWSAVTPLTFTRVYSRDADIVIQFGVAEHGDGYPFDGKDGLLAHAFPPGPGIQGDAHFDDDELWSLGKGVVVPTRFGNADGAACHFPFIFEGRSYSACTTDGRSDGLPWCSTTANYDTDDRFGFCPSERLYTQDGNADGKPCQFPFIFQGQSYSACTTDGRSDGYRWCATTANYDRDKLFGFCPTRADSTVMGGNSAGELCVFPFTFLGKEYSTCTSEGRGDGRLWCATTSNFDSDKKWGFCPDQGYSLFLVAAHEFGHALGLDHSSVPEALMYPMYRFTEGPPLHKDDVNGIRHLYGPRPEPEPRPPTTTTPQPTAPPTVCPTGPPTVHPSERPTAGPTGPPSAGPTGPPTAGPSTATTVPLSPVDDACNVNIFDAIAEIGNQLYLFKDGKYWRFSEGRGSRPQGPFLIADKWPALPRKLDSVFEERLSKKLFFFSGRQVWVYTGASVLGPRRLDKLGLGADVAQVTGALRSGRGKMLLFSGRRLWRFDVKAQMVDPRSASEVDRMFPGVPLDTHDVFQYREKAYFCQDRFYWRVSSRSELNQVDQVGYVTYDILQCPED

MMP13 = MMP13 (human, UniProt P45452 104-471, limits assumed)
MMP12 = MMP12 (human, UniProt P39900 106-470, limits assumed)
MMP12, sequence (P39900 106-470 limits assumed): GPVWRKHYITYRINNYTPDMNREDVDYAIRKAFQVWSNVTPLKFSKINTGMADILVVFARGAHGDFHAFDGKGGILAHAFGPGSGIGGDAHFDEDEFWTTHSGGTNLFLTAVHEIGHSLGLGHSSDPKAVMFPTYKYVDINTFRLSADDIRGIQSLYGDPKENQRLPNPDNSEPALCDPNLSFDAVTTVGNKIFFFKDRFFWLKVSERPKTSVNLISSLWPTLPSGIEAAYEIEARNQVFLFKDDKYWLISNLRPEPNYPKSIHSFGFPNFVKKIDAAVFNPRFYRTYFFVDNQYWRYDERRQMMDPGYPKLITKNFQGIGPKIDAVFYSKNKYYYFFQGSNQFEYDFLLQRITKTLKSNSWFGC

ADAMTS4 = biological target: T3, ADAMTS4 (human, UniProt O75173 213-685, limits assumed)
T3 sequence (looked up): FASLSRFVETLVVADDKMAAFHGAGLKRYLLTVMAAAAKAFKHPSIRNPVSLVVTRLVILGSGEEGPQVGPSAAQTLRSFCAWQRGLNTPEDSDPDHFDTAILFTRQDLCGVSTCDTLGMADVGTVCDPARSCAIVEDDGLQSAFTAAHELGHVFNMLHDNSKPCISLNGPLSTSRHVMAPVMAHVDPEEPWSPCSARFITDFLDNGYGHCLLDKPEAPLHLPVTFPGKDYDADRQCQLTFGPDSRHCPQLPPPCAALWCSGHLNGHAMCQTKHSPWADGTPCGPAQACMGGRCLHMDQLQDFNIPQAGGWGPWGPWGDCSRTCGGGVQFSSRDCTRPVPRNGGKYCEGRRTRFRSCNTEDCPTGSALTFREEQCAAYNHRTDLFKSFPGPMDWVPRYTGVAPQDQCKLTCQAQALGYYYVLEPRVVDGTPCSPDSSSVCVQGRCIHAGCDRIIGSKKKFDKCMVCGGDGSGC

MMP1 = biological target: T4, MMP1 (human, UniProt P03956 100-469, limits assumed)
T4 sequence (looked up): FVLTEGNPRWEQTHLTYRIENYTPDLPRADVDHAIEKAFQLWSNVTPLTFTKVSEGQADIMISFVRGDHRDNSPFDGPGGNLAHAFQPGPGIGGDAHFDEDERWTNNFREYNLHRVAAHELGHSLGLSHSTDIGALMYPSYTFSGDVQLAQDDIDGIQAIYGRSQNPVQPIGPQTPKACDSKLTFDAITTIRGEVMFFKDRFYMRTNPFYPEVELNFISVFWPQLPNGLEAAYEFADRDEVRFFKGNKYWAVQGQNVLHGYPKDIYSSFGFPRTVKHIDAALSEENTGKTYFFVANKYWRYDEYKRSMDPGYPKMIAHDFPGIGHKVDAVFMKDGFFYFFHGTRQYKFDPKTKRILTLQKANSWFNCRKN

chymotrypsin = biological target: chymotrypsin
Cathepsin G = biological target: T5, Cathepsin G (UniProt P08311 21-244)
T5 sequence (looked up): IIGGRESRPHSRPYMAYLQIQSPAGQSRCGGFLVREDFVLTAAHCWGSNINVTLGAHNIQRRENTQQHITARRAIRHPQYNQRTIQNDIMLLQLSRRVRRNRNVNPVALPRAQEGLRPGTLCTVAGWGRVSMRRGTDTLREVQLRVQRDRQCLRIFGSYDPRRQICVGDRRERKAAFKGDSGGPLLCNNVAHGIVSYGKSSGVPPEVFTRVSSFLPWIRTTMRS

Elastase = biological target: Elastase
bovine trypsin = bovine trypsin (bovine, UniProt P00760 24-246)
bovine trypsin, sequence (P00760 24-246): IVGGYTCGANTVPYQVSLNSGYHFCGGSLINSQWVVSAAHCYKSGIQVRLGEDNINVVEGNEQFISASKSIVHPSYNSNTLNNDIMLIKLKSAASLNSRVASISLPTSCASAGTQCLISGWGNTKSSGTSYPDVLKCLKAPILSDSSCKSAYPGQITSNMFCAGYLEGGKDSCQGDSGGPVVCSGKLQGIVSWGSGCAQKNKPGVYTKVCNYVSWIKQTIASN

Protease Inhibition (% of WT) (MMP2): 47 % of WT
Protease Inhibition (% of WT) (ADAMTS5): 373 % of WT
Protease Inhibition (% of WT) (MMP3): 130 % of WT
Protease Inhibition (% of WT) (MMP8): 133 % of WT
Protease Inhibition (% of WT) (MMP9): 500 % of WT
Protease Inhibition (% of WT) (MMP13): 113 % of WT
Protease Inhibition (% of WT) (MMP12): 150 % of WT
Protease Inhibition (% of WT) (ADAMTS4): 80 % of WT
Protease Inhibition (% of WT) (MMP1): 370 % of WT
Protease Inhibition (% of WT) (chymotrypsin): 25 % of WT
Protease Inhibition (% of WT) (Cathepsin G): 376 % of WT
Protease Inhibition (% of WT) (Elastase): 250 % of WT
Protease Inhibition (% of WT) (bovine trypsin): 221 % of WT
B1: Variant A2M, bait region SEQ ID NO 136 (other)
chain: SVSGKPQYMVLVPSLLHTETTEKGCVLLSYLNETVTVSASLESVRGNRSLFTDLEAENDVLHCVAFAVPKSSSNEEVMFLTVQVKGPTQEFKKRTTVMVKNEDSLVFVQTDKSIYKPGQTVKFRVVSMDENFHPLNELIPLVYIQDPKGNRIAQWQSFQLEGGLKQFSFPLSSEPFQGSYKVVVQKKSGGRTEHPFTVEEFVLPKFEVQVTVPKIITILEEEMNVSVCGLYTYGKPVPGHVTVSICRKYSDASDCHGEDSQAFCEKFSGQLNSHGCFYQQVKTKVFQLKRKEYEMKLHTEAQIQEEGTVVELTGRQSSEITRTITKLSFVKVDSHFRQGIPFFGQVRLVDGKGVPIPNKVIFIRGNEANYYSNATTDEHGLVQFSINTTNVMGTSLTVRVNYKDRSPCYGYQWVSEEHEEAHHTAYLVFSPSKSFVHLEPMSHELPCGHTQTVQAHYILNGGTLLGLKKLSFYYLIMAKGGIVRTGTHGLLVKQEDMKGHFSISIPVKSDIAPVARLLIYAVLPTGDVIGDSAKYDVENCLANKVDLSFSPSQSLPASHAHLRVTAAPQSVCALRAVDQSVLLMKPDAELSASSVYNLLPEKDLTGFPGPLNDQDDEDCINRHNVYINGITYTPVSSTNEKDMYSFLEDMGLKAFTNSKIRKPKMCPQLEQYEMHGPKEEEGLGSIPENFFGVSELEGRGSEGEGEGEGVEEPHTKLRKYFPETWIWDLVVVNSAGVAEVGVTVPDTITEWKAGAFCLSEDAGLGISSTASLRAFQPFFVELTMPYSVIRGEAFTLKATVLNYLPKCIRVSVQLEASPAFLAVPVEKEQAPHCICANGRQTVSWAVTPKSLGNVNFTVSAEALESQELCGTEVPSVPEHGRKDTVIKPLLVEPEGLEKETTFNSLLCPSGGEVSEELSLKLPPNVVEESARASVSVLGDILGSAMQNTQNLLQMPYGCGEQNMVLFAPNIYVLDYLNETQQLTPEIKSKAIGYLNTGYQRQLNYKHYDGSYSTFGERYGRNQGNTWLTAFVLKTFAQARAYIFIDEAHITQALIWLSQRQKDNGCFRSSGSLLNNAIKGGVEDEVTLSAYITIALLEIPLTVTHPVVRNALFCLESAWKTAQEGDHGSHVYTKALLAYAFALAGNQDKRKEVLKSLNEEAVKKDNSVHWERPQKPKAPVGHFYEPQAPSAEVEMTSYVLLAYLTAQPAPTSEDLTSATNIVKWITKQQNAQGGFSSTQDTVVALHALSKYGAATFTRTGKAAQVTIQSSGTFSSKFQVDNNNRLLLQQVSLPELPGEYSMKVTGEGCVYLQTSLKYNILPEKEEFPFALGVQTLPQTCDEPKAHTSFQISLSVSYTGSRSASNMAIVDVKMVSGFIPLKPTVKMLERSNHVSRTEVSSNHVLIYLDKVSNQTLSLFFTVLQDVPVRDLKPAIVKVYDYYETDEFAIAEYNAPCSKDLGNADYKDDDDKGASHHHHHH
